40 sequences from the nanobody polyreactivity screen of Harvey et al. (2022) can be followed below.

The series is described as follows: yeast display, Sf9 membrane polyspecificity reagent, FACS + sequencing; frameworks hold sequencing errors. In short, it runs like this:
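Galactose induction of a Saccharomyces cerevisiae BJ5465 synthetic nanobody display library ran 36–48 hours. The cells were then stained for 1 hour at 4 °C with 10% biotinylated, detergent-solubilized Sf9 membrane reagent, pulled down on streptavidin microbeads and FACS-sorted into low and high (top ~1%) gates on expression and reagent-binding fluorescence. Labels for polyreactivity follow the gate of origin.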
As to “QVQLVESGVGLVQAGGSLRLSCAHSGRIFFKNTMGWYRQAPGKERELVAAITSSGSSTYYADSVKGRFTISRDNAMNTVYLQMNSLKPEDTAVYYCNADYGFSFYWYDFWGHGTQVTVSS”, the “polyreactivity (PSR sort gate)” value is “low polyreactivity”. The same measure for “QVQLVESGVGLVQAGGSLRLSCASSGRILTYYAMGWYRQAPGKERELVASISSNGGTYYADSVKGRFTISRDNAKNTVYLQMNSLKPEDTAVYYCNAKRVARYQYGASYNYWGQGTQVTVSS”: “high polyreactivity”; for “QVQLVESGVGLVQAGGSLRLSCSASGIIFDDYAMGWYRQAPGKERELVAAISRRGGSTYYADSVKGRFTISRDNAKNTVYLQMNSLKPEDTAVYYCAATTRTYSLYNYWGQGTHVTVSS”: “high polyreactivity”.

As for “QVQLVESGVGLVQAGGSLRLSCSASGSIFDYYAMGWYRQAHGKERELVAAISWRGGRTYYADSVKGRFTISRDNAKNTVYLQMNSLNPVDTAVYYCNTQEPYYESDYWGLGTQVTVSS”, the “polyreactivity (PSR sort gate)” value is “high polyreactivity”. As for “QVQLVESGVGLVQAGGSLRLSCSASGSTFYTYAMGWYRQAPGKDRELVAAINLRGGRTYYADSVKGRFTISRDTAKNTVYLQMNSRKPEDTAVYYCAAQSIAYYKQIYYLGMDYWGQGTQVTVSS”, the entry is “high polyreactivity”; as for “QVQLVESGVGLVQAGGSLRLSFASSGRIFPTNAMGSYSQAPRKEREFVPAITWRGGSTYYADSVKGRFTISRDNAKNTVYLQINSLKPEDTAVYYCAATGHIVFFRAYDYGYWGQGTQVTVSS”, “low polyreactivity”; as for “QVQLVESGVGLVQAGGSLRLTCAASGRIFVRNAMGWYRQAPGKEMELVARITSSTGRTYYADSVKGRFTISRDNAKNTVYLQFTSLKPEDTAVYYCAVRYFYQFWAYDYWGKGTQVTVSS”, “high polyreactivity”.

For “QVQLVESGVGLVQAGGSLRLTCAASGSIFTAYPMGSYRQAPGKERELVAAISRSGGRTYYADSVKGRFTISRDNAQITVNFQFNSLKPEDTAVYNCAAASRSTNYNYYYWGLGTQVTVSS”, the “polyreactivity (PSR sort gate)” value is on record as “high polyreactivity”. On to “QVQLVESGVGLVQAGGSLRVSCAASGSTIPIYAMGWYRQAPGKERELVAVISRSGGITYYADSVKGRFTISRDNAKNTVYLQMNSLKPEDTAVYYCNARTRGWTPDRGYWGQGTQVTVSS”, for which the “polyreactivity (PSR sort gate)” value was “high polyreactivity”. As for “QVQLVESGVGLVQAGGSLSLSCAASGCTLRYYVMGWYRQAPGKERELVASISWSGDSTYYADSVKGRFTISRDNAKNTVYLQMNSLKPEDTAVYYCAARRWYVHYFAYGYWGQGTQVTVSS”, the entry is “low polyreactivity”. “QVQLVESGVGLVQAGGSLSLSCAATGRIFNSYMGWYRQAPGKERELDAAISWSSGTSTYYADSVKGRFTISRDNAKNTVYLQMNSLKPEDTAVYYCNADDYYGPYPEEYDYWGQGTQVTVSS”: the “polyreactivity (PSR sort gate)” value is on record as “low polyreactivity”. Consider “QVQLVESGVGLVQAGGSLSLSCASSGFIFSANDMGWYRPAPGKERELVADIDSSGRTNYADSVKGRVTISRDNAKNTVYLQMNSLKPEDTAVYYCATPPDDTGGGYRGYDYWGQGTQVTVSS”, for which the “polyreactivity (PSR sort gate)” value is reported as “low polyreactivity”. Consider “QVQLVESGVGLVQAGGSRRLSCAASGRTFFDNVMGWYRQAPGKERELVAAIRSAGTTYYADSVKGRFTISRDNAKNTVYLQMNRLKPEDTAVYYCAATNRYYWSYFYQAKYGYWGQGTQVTVSS”, for which the “polyreactivity (PSR sort gate)” value was “low polyreactivity”. In the case of “QVQLVESGVGLVQAGGTLRLSCAASGFIFRKYGMGWYRQAPGKERELVAAIRFTGGSTRYADSVKGRFTISRDNAKNTVYLQMNSLIPEDTAVYYCNADRVYVRGRFTYDYWGQGTQVTVSS”, the “polyreactivity (PSR sort gate)” value is “low polyreactivity”. As for “QVQLVESGVGLVQAGGTLRLSCAASGSIFDPYAMGWYRQAPGKERELVAAITYSVGGTTYYADSVKGRFTISRDNAKNTVYLQMNSLKPEDTAVYYCAAEWWGNPFDYWGQGTQVTVST”, the “polyreactivity (PSR sort gate)” value is listed as “high polyreactivity”.

“QVQLVESGVGLVQAVGSLRISCAASGRIFQPYAMGWYRQAPGNERELVARITRRGVSTYYADSVKGRFTISRENAKNTVYLQMNSLKPEDTAVYYCAAELFGGYYYWGLGTQVTVSS”: the “polyreactivity (PSR sort gate)” value is listed as “high polyreactivity”.

Turning to “QVQLVESGVGVVQAGGSLRLSCAASGSTYVDNAMGWYRQAPGKERELVAGNSWSGASTYYADSVKGRFTISRDNAKNTFYLQMNSLKAEDTAVYYCATRVRAYYHQSWGYTERVYWGQGTQVTVSS”, the “polyreactivity (PSR sort gate)” value is recorded as “high polyreactivity”.

On to “QVQLVESGVVLVQAGGSLPLSCSASGRIFIHYAMGWYRQAPGKERELVAAISASGGTTNYADSVKGRFTISRDNAKNTVYLQMNSLKPEDTAVYYCAAEGYRSWRGLRSRYYYWGEGTQVTVSS”, for which the “polyreactivity (PSR sort gate)” value is “high polyreactivity”. Consider “QVQLVESPGGLVQAGGSLRLSCAASGSIFGSYAMGWYRQEPGKEREFVAVITSASTNYADSVKGRFTISRDNAKNTVNLQLNSLKPEDTAVYYCNKRGTRIRRTNKSHGVDYWGQGTQVTVSS”, for which the “polyreactivity (PSR sort gate)” value is reported as “low polyreactivity”.

Regarding “QVQLVESRAGLVQAGGSLRLSCAASGNIFDIYAMGWYRQAPGKERELVAAISSGGSTYYADSVKGRFTISRDNAKNTVYLQLNSLKPEDTAVYYCAESRVGYYRYEYWGQGNQVTVSS”, the “polyreactivity (PSR sort gate)” value is “low polyreactivity”. Take “QVQLVESRGALVQAGGSLRLSCAASGSIFSRYAMGWYRQAPGKERELVAAIRWTDSSTYYADSVKGRFTISRDHAKNTVYLQMNSLKPEDTAVYDCAKVYEGGSNKVDYWGQGTQVTVSS”: the “polyreactivity (PSR sort gate)” value is listed as “low polyreactivity”. With “QVQLVESRGCLVQAGGSLRLSCAASGFIFAYYAMGWYRQAPRKERELVGAISSGGTTNYADSVMGRFTSSRDNAKNTVYLQMNSLKPEDTAVYYCAAAWGYYSTTIYKYSFNYDFWGQGTQVTVSS”, the “polyreactivity (PSR sort gate)” value is listed as “high polyreactivity”. Regarding “QVQLVESRGCLVQAGGSLRLSCAASGRTFYRYVMGWYRQAPGKEMELVAAISEGGGSTFYADSVKGRFTISRDNAKNTDYLQMNSLKPEDTAVYYCAADYYVRGGFFRYDYWGQGTQVTVSS”, the “polyreactivity (PSR sort gate)” value is “low polyreactivity”. As to “QVQLVESRGCLVQPGGSLLLSCAASGIIFGHYVMGWYRQAPGKERELVAAISSRGGNTYYADSVKGRFTISRDNAKNTVYLQMNSLKPEDTAVYYCAADRYATPMDYWGQGTQVTVSS”, the “polyreactivity (PSR sort gate)” value is “high polyreactivity”. “QVQLVESRGGIVQAGGSLRLISAASGRTFGWNAKGWYRQERGKERELVAAISLRGTSTYYADSVKGRFTISRDNAKNTVYLQMNSLKPEDTAVYYCNTLVYVPYHEDYWGQGTQVTVSS”: the “polyreactivity (PSR sort gate)” value is “high polyreactivity”. Consider “QVQLVESRGGLVQAARSLRLSFAASGSIFSSNAMGWYRQAPGKERELVAAITSVGSTTYADSVKGRFTISRDNAKNTVYLQMNSLKPEDTAVYYFAADPVYRYYHGWTYVDYVYWGQGTQVTVSS”, for which the “polyreactivity (PSR sort gate)” value is recorded as “low polyreactivity”.

As for “QVQLVESRGGLVQAGASLRLSCAASALIFGYYAMGCYRQAPVKEREFVAAIDGSDGTTYYADSVKGRFTIARDNAKNTVYLQMNSLKPEDTAVYYCNADSSSYSSDLGYDYWGQGTQVTVSS”, the “polyreactivity (PSR sort gate)” value is reported as “low polyreactivity”. Consider “QVQLVESRGGLVQAGCSLRLRCAASGYIFYGYDKGWYRPAPGKERELVAGITYSGGGGTHYADSVKGRFTISRDNAKNTVYLQMNSLKQEDRGVYYCAKADPQLNRTYYSYGMDSWGQGTQVTVSS”, for which the “polyreactivity (PSR sort gate)” value was “low polyreactivity”. With “QVQLVESRGGLVQAGGILRLSCAACGSTFPKYAMGWYRQAPGKERELVAAITGISGRTYYADSLKGRFTISRDNAKNTVYLQMNSLKPEDTAVYYCNARIFAGWSIYNYWGQGTQVTVSS”, the “polyreactivity (PSR sort gate)” value is “high polyreactivity”. “QVQLVESRGGLVQAGGSLRISCAASGRIFGYNAMGWYRQAPGKERELVAAISASGGRTYYADSVKARFTISRDNAKNTVYLQMNSLKPEDTAVYYCATKYRSFYSYDYWGQGTQVTVSS”: the “polyreactivity (PSR sort gate)” value is “high polyreactivity”.

Consider “QVQLVESRGGLVQAGGSLRLICAASGFILDTSAMGWYRQAPGKERALVAAISASGSSTYYADSVKGRFTISRDNAKNTLYLQMNSLKPEDTAVNYCAAKDTGYGYGFPRLDYWGQGTQVNVSS”, for which the “polyreactivity (PSR sort gate)” value was “low polyreactivity”. As to “QVQLVESRGGLVQAGGSLRLSCAASGFIFGVNAMGWYRQAPGKERELVAAITRNGGSTYYADSVKGRFTISRDYAKNSVYLQMNSLKPEDTAVYYCAKYVRRAPSTFDVDYWGQGTQVTVSS”, the “polyreactivity (PSR sort gate)” value is “high polyreactivity”. For “QVQLVESRGGLVQAGGSLRLSCAASGFTFPFYAMGSYRQAPGKERELVAAISISGGSTHYADSVKGRFTISRDNAKNTVYLQMNSLKPEDTAVYYCAAEYGVVIYIDGWYPTLHEYYYSGQGTQVTVSS”, the “polyreactivity (PSR sort gate)” value is reported as “high polyreactivity”.

With “QVQLVESRGGLVQAGGSLRLSCAASGFTFRYYAMGWYRQAPGKERELVARITRCASTSYADSVKGRFTISRDNAKNTVYLLMISLIPEDTAVYYCAADSPAGGYVFPELPYDYWGQGTQVTVSS”, the “polyreactivity (PSR sort gate)” value was “low polyreactivity”. The same measure for “QVQLVESRGGLVQAGGSLRLSCAASGFTIDTYAMGWYRQAPGKERELVAGISWSGGSTYYADSVKGRFTISRDNAKNTVYLQMNSLKPEDTAVYYCNARDYSVGRYDYWGQGTQVTVSS”: “low polyreactivity”. “QVQLVESRGGLVQAGGSLRLSCAASGIIFFKYAMGWYRQAPGKERELVAAISIDGSTNYADSVKGRFTISRDNAKNTVYLQMNSLKPEDTAVYYCNAKRYGFFYWQGDYWGQGTQVTVSS”: the “polyreactivity (PSR sort gate)” value is listed as “low polyreactivity”. As for “QVQLVESRGGLVQAGGSLRLSCAASGITFRTYSMGWYRQAPGKERELVAGIRTRTGSTYYADSVKGRFTISRDNAKNTVYLQMNSLKPEDTAVYYCAAKGSGYYGRQRIYSYTYDYWGQGTQVTVSS”, the “polyreactivity (PSR sort gate)” value is reported as “high polyreactivity”.

As to “QVQLVESRGGLVQAGGSLRLSCAASGITFTRNVMGWYRPAPGKERELVAGISRSGGRTYYADSVKGRFTISRENAKNTVYLQMNSLKPEDTAVYYCAADYSRRTRVDDDYDYWGQGTQVTVSS”, the “polyreactivity (PSR sort gate)” value is “high polyreactivity”. On to “QVQLVESRGGLVQAGGSLRLSCAASGLIFGFNTMGWYRQAPGKERELVAAITSGGGSTYYADSVKGRFTISRDNAKNTVYLQMNSLKPEDTAVYYCNAGGGRWRARQWHDYWGQGTQVTVSS”, for which the “polyreactivity (PSR sort gate)” value is “low polyreactivity”.

Take “QVQLVESRGGLVQAGGSLRLSCAASGLIFRHYAMGWYRQAPGKERELVAAITGSGSTYYADSVKGRFTISRDNAKNTVYFQMNSLKPEDTAVDYCAATVYSSGAMDYWGQGTQVTVSS”: the “polyreactivity (PSR sort gate)” value is “low polyreactivity”.
